Laboratory results as given in the DeepSol protein solubility set.

assay: soluble on expression in E. coli; label from the status in PepcDB or PDB records

| Sequence | soluble on expression in E. coli |
| --- | --- |
| VQEPLRVPPSAPARLVVLASGTGSLLRSLLDAAVGDYPARVVAVGVDRECRAAEIAAEASVPVFTVRLADHPSRDAWDVAITAATAAHEPDLVVSAGFMRILGPQFLSRFYGRTLNTHPALLPAFPGTHGVADALAYGVKVTGATVHLVDAGTDTGPILAQQPVPVLDGDDEETLHERIKVTERRLLVAAVAALATHGVTVVGRTATMGRKVTIG | soluble |
| VRDVLDNQEFGFTGLHVAAAVADTLGTGDTLFAAASNSIRDLSLVGMPFDGVDTFSPRGVAGIDGSVAQAIGTSLAVQSRHPDEIRAPRTVALLGDLSFLHDIGGLLIGPDEPRPENLTIVVSNDNGGGIFELLETGADGLRPNFERAFGTPHDASIADLCAGYGIEHQVVDNLQDLIIALVDTTEVSGFTIIEASTVRDTRRAQQQALMDTVH | not soluble |
| VRGLPRAKKLEKLGVFSACKANGTCKCNGWKNPKPPTAPRIDLQQPAANLSELCRSCEHPLADHVSHLENVSEDEINRLLGMVVDVENLFMSVHKEEDTDTKQVYFYLFKLLRKCILQMTRPVVEGSLGSPPFEKPNIEQGVLNFVQYKFSHLAPRERQTMFELSKMFLLCLNYWELETPAQFRQRSQAEDVATYKVNYTRWLCYCHVPQSCDSLPRYETTHVFGRS | soluble |
| VRKRMVIGLSTGSDDDDVEVIGGVDPRLIAVQENDSDESSLTDLVEQPAKVMRIGTMIKQLLEEVRAAPLDEASRNRLRDIHATSIRELEDGLAPELREELDRLTLPFNEDAVPSDAELRIAQAQLVGWLEGLFHGIQTALFAQQMAARAQLQQMRQGALPPGVGKSGQHGHGTGQYL | soluble |
| VRRDRAPPERGGAGTSQDGTSKNWFKITIPYGRKYDKAWLLSMIQSKCSVPFTPIEFHYENTRAQFFVEDASTASALKAVNYKILDRENRRISIIINSSAPPHTILNELKPEQVEQLKLIMSKRYDGSQQALDLKGLRSDPDLVAQNIDVVLNRRSSMAATLRIIEENIPELLSLNLSNNRLYRLDDMSSIVQKAPNLKILNLSGNELKSERELDKIKGLKLEELWLDGNSLCDTFRDQSTYISAIRERFPKLLRLDGHELPPPIAFDVEAPTTLPP | soluble |
| VSEIKTLVTFFGGTGDLAKRKLYPSVFNLYKKGYLQKHFAIVGTARQALNDDEFKQLVRDSIKDFTDDQAQAEAFIEHFSYRAHDVTDAASYAVLKEAIEEAADKFDIDGNRIFYMSVAPRFFGTIAKYLKSEGLLADTGYNRLMIEKPFGTSYDTAAELQNDLENAFDDNQLFRIDHYLGKEMVQNIAALRFGNPIFDAAWNKDYIKNVQVTLCEVLGVEERAGYYDTAGALLDMIQNHTMQIVGWLAMEKPESFTDKDIRAAKNAAFNALKIYDEAEVNKYFVRAQYGAGDSADFKPYLEELDVPADSKNNTFIAGELQFDLPRWEGVPFYVRSGKRLAAKQTRVDIVFKAGTFNFGSEQEAQEAVLSIIIDPKGAIELKLNAKSVEDAFNTRTIDLGWTVSDEDKKNTPEPYERMIHDTMNGDGSNFADWNGVSIAWKFVDAISAVYTADKAPLETYKSGSMGPEASDKLLAANGDAWVFKG | soluble |
| VSPRPGPAGRGPAPCRCADLHSLCVDSHALRRDGMRFLHTADWQLGMTRHFLAGDAQPRYSAARRDAVAGLKALAADVGAEFVVVAGDVFEHNQLAPQIVGQSLEAMRVIGLPVYLLPGNHDPLDASSVYTSTLFRAERPDNVVVLDRAGVHEVRPGVQIVAAPWRSKAPTTDPVAEVLAGLPTDAAIRLLVAHGGVDALDPDHDKPSLIRLAALDDALTRQAIHYVALGDKHSLTQVGSSGRVWYSGAPEVTNFDDVEPDPGHVLVVDIDESDPRHPVTVDARRIGRWRFVTLHHQVDTSRDIADLDLNLDLMTDKDRTVVRLALTGSLTVTDRAALDTCLDKYARLFAWLGLWERHTDLAVIPVDAEFTDLGIGGFAAAAVDELVATARGGDDESAVDAQAALALLLRLADRGAA | not soluble |
| VTALLDVNVLIALGWPNHVHHAAAQRWFTQFSSNGWATTPITEAGYVRISSNRSVMQVSTTPAIAIAQLAAMTSLAGHTFWPDDVPLIVGSAGDRDAVSNHRRVTDCHLIALAARYGGRLVTFDAALADSASAGLVEVL | not soluble |
| VTLAAEPHPAPPQQPTVAWSEPDVDRRVEFWPTVAIRSALESGDIATWQRIAAALKRDPYGRTARQVEEVLEGIPATGIANAFWEVLDRARTHLDANERAEVARQVGLLLDRSGLQRQEFASRIGVTAQDLTAYLDGIVSPSASLMIRMRRLSDRFVRAKSVRAADS | soluble |
| VTLRVVPESLAGASAAIEAVTARLAAAHAAAAPFIAAVIPPGSDSVSVCNAVEFSVHGSQHVAMAAQGVEELGRSGVGVAESGASYAARDALAAASYLSGGL | not soluble |
| VTPSEGNAPLPELHNTVVVAAFEGWNDAGDAAGDAVAHLAASWQALPIVEIDDEAYYDYQVNRPVIRQVDGVTRELQWPAMRISHCRPPGSDRDVVLMCGVEPNMRWRTFCDELLAVIDKLNVDTVVILGALLADTPHTRPVPVSGAAYSAASARQFGLQETRYEGPTGIAGVFQSACVGAGIPAVTFWAAVPHYVSHPPNPKATIALLRRVEDVLDVEVPLADLPAQAEAWEREITETIAEDHELAEYVQTLEQHGDAAVDMNEALGNIDGDALAAEFERYLRRRRPGFGR | soluble |
| VTSSPFKTIKSDEIFAAAQKLMPGGVSSPVRAFKSVGGQPIVFDRVKDAYAWDVDGNRYIDYVGTWGPAICGHAHPEVIEALKVAMEKGTSFGAPCALENVLAEMVNDAVPSIEMVRFVNSGTEACMAVLRIMRAYTGRDKIIKFEGCYHGHADMFLVKAGSGVATLGLPSSPGVPKKTTANTLTTPYNDLEAVKALFAENPGEIAGVILEPIVGNSGFIVPDAGFLEGLREITLEHDALLVFDEVMTGFRIAYGGVQEKFGVTPDLTTLGKIIGGGLPVGAYGGKREIMQLVAPAGPMYQAGTLSGNPLAMTAGIKTLELLRQPGTYEYLDQITKRLSDGLLAIAQETGHAACGGQVSGMFGFFFTEGPVHNYEDAKKSDLQKFSRFHRGMLEQGIYLAPSQFEAGFTSLAHTEEDIDATLAAARTVMSAL | soluble |
| VTVGDQNGMGPSSGYVTRITNDAREDDMENNMKEVSSMIGNLRNMAIDMGNEIGSQNRQVDRIQQKAESNESRIDEANKKATKLLKN | soluble |
| YDPYQHIEKATNRRNMVLNAMVETGDITKAEGDKYKATKIVLNDQSKDPLANKYPWYVDAVINEAVNEADITQDEIMQKGY | not soluble |
| YGQYLSIRKTETLLRNELSKLTPDTVEELSSKLPENSRSLVITYMRQVLDARDTPAQVQRLLANFEIAADKDLAISKTLTK | not soluble |
| YIKVPVLRLKPSEIHINLKLLKKTADYSSVSALQQTMLYLGRLLVQSGVNTLGVDAVAAFNAASIIDSYVLAPGSSLASSVTTFSAQNRGGGKYDRIPRG | not soluble |
| YKTPLLKALSAVGKAAVDVCRYFNPEVKKVVAYLGWEQEYFLVDEGLYAARPDLLLTGRTLMGHEASKNQQLEDHYFGAIPTRVAAFMKDLEIQALELGIPVKTRHNEVAPNQFELAPIFEECNLAVDHNMLLMSLMRKVARSHGFRLLLHEKPFKGVNGSGKHNNWSLGTDTGVLLMAPGKTAEDNLRFITFIVNTLMAVYHHNGLLKASIMSATNAHRLGANEAPPAIISSFLGKQLTQVLDHIEESGNDDLVSLAGKQGMKLDIPQIPELLIDNTDRNRTSPFAFTGNRFEFRAVGSEANCASAMIALNAAVAEQLARFKQDVDALIEKGEPKISAIIEIIRRYIKECKPVRFDGNGYSDEWKAEAAHRGLDCETSCPLIFDNYLKPASIAMFESTGVMTRKELEARNEVKWETYTKKIQIEARVLGDLAMNH | not soluble |
